Experimental data from patent publication US20180273587A1 (AILERON THERAPEUTICS, published 2018).
Positions of bridges follow the written chain, without caps; N, C: chain ends. Non-standard residues stand in square brackets, D forms with d. Phe(4-CF3) = N[C@@H](Cc1ccc(C(F)(F)F)cc1)C(=O)O; Phe(4-tBu) = CC(C)(C)c1ccc(C[C@H](N)C(=O)O)cc1; 2Nal = N[C@@H](Cc1ccc2ccccc2c1)C(=O)O; Igl = N[C@H](C(=O)O)C1Cc2ccccc2C1; R8 = C=CCCCCCC[C@@](C)(N)C(=O)O; S5 = C=CCCC[C@](C)(N)C(=O)O

Tests used:
Assay in all cases: Ki table, method not stated
BCL-2 = BCL-2 (UniProt P10415 1-217, limits assumed)
Chain of BCL-2 (P10415 1-217 limits assumed): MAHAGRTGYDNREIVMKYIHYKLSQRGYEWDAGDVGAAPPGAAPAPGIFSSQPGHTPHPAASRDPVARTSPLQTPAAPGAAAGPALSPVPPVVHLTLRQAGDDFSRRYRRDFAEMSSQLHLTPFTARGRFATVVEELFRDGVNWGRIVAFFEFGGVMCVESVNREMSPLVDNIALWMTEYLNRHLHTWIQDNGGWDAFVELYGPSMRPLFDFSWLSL

BCL-XL = BCL-XL (UniProt Q07817 1-209)
Chain of BCL-XL (Q07817 1-209): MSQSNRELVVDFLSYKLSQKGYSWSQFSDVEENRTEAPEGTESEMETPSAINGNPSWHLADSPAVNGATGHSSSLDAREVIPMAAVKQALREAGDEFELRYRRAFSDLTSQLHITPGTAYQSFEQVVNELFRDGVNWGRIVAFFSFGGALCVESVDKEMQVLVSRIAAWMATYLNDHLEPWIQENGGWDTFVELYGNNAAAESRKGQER

MCL-1 = target: T1, MCL-1 (UniProt Q07820 172-327, limits assumed)
T1 construct: also called Myeloid cell leukemia 1
T1 sequence (Q07820 172-327 limits assumed): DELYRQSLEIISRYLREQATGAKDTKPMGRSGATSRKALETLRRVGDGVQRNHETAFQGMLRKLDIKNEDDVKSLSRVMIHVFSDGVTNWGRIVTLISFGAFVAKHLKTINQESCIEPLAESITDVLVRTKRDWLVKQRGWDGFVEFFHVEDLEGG

Binder | Ki (BCL-2) [nM] | Ki (BCL-XL) [nM] | Ki (MCL-1) [nM]
Ac-IW[Igl]AQALR[R8]IGDAFN[S5]YYA-NH2 (staple 9-16; SMILES CC[C@H](C)[C@H](NC(C)=O)C(=O)N[C@@H](Cc1c[nH]c2ccccc12)C(=O)N[C@H](C(=O)N[C@@H](C)C(=O)N[C@@H](CCC(N)=O)C(=O)N[C@@H](C)C(=O)N[C@@H](CC(C)C)C(=O)N[C@@H](CCCNC(=N)N)C(=O)N[C@]1(C)CCCCCCC=CCCC[C@@](C)(C(=O)N[C@@H](Cc2ccc(O)cc2)C(=O)N[C@@H](Cc2ccc(O)cc2)C(=O)N[C@@H](C)C(N)=O)NC(=O)[C@H](CC(N)=O)NC(=O)[C@H](Cc2ccccc2)NC(=O)[C@H](C)NC(=O)[C@H](CC(=O)O)NC(=O)CNC(=O)[C@H]([C@@H](C)CC)NC1=O)C1Cc2ccccc2C1, also called Ac-IWIglAQALR$r8IGDAFN$YYA-NH2) [SEQ ID NO: 1682] | 246 | 146 | 12.8
Ac-IW[Phe(4-CF3)]AQALR[R8]IGDAFN[S5]YYA-NH2 (staple 9-16; SMILES CC[C@H](C)[C@H](NC(C)=O)C(=O)N[C@@H](Cc1c[nH]c2ccccc12)C(=O)N[C@@H](Cc1ccc(C(F)(F)F)cc1)C(=O)N[C@@H](C)C(=O)N[C@@H](CCC(N)=O)C(=O)N[C@@H](C)C(=O)N[C@@H](CC(C)C)C(=O)N[C@@H](CCCNC(=N)N)C(=O)N[C@]1(C)CCCCCCC=CCCC[C@@](C)(C(=O)N[C@@H](Cc2ccc(O)cc2)C(=O)N[C@@H](Cc2ccc(O)cc2)C(=O)N[C@@H](C)C(N)=O)NC(=O)[C@H](CC(N)=O)NC(=O)[C@H](Cc2ccccc2)NC(=O)[C@H](C)NC(=O)[C@H](CC(=O)O)NC(=O)CNC(=O)[C@H]([C@@H](C)CC)NC1=O, also called Ac-IWF4CF3AQALR$r8IGDAFN$YYA-NH2) [SEQ ID NO: 1683] | 237 | 9.1 | 76.7

Continued by falling Ki (BCL-2), values first:

Ki (BCL-2) [nM] | Ki (BCL-XL) [nM] | Ki (MCL-1) [nM] | Binder
288 | 12.7 | 169 | Ac-IWIAQA[Phe(4-tBu)]R[R8]IGDAFN[S5]YYA-NH2 (staple 9-16; SMILES CC[C@H](C)[C@H](NC(C)=O)C(=O)N[C@@H](Cc1c[nH]c2ccccc12)C(=O)N[C@H](C(=O)N[C@@H](C)C(=O)N[C@@H](CCC(N)=O)C(=O)N[C@@H](C)C(=O)N[C@@H](Cc1ccc(C(C)(C)C)cc1)C(=O)N[C@@H](CCCNC(=N)N)C(=O)N[C@]1(C)CCCCCCC=CCCC[C@@](C)(C(=O)N[C@@H](Cc2ccc(O)cc2)C(=O)N[C@@H](Cc2ccc(O)cc2)C(=O)N[C@@H](C)C(N)=O)NC(=O)[C@H](CC(N)=O)NC(=O)[C@H](Cc2ccccc2)NC(=O)[C@H](C)NC(=O)[C@H](CC(=O)O)NC(=O)CNC(=O)[C@H]([C@@H](C)CC)NC1=O)[C@@H](C)CC, also called Ac-IWIAQAF4tBuR$r8IGDAFN$YYA-NH2) [SEQ ID NO: 1695]
265 | 151 | 163 | Ac-IW[2Nal]AQALR[R8]IGDAFN[S5]YYA-NH2 (staple 9-16; SMILES CC[C@H](C)[C@H](NC(C)=O)C(=O)N[C@@H](Cc1c[nH]c2ccccc12)C(=O)N[C@@H](Cc1ccc2ccccc2c1)C(=O)N[C@@H](C)C(=O)N[C@@H](CCC(N)=O)C(=O)N[C@@H](C)C(=O)N[C@@H](CC(C)C)C(=O)N[C@@H](CCCNC(=N)N)C(=O)N[C@]1(C)CCCCCCC=CCCC[C@@](C)(C(=O)N[C@@H](Cc2ccc(O)cc2)C(=O)N[C@@H](Cc2ccc(O)cc2)C(=O)N[C@@H](C)C(N)=O)NC(=O)[C@H](CC(N)=O)NC(=O)[C@H](Cc2ccccc2)NC(=O)[C@H](C)NC(=O)[C@H](CC(=O)O)NC(=O)CNC(=O)[C@H]([C@@H](C)CC)NC1=O, also called Ac-IW2NalAQALR$r8IGDAFN$YYA-NH2) [SEQ ID NO: 1685]
